Assay results published in the supplement of paper PMC10126150.
± gives the standard deviation of the averaged measurements.

system: ATP; assay: switch fluorescence ratio, 500 uM ATP over buffer (Cy3 cluster intensity, sum of 5 cycles each) (fold (ratio)); higher = stronger signal-on switching upon ATP binding; sequences stand for … in TCGTCGGCAGCGTCAGATGTGTATAAGAGACAGTTTTTTTTTTTTTTTTTTTTTTTTT…TC; conditions: aptamer strand: ATP DNA aptamer (quencher-CACCTGGGGGAGTATTGCGGAGGAAGG + anchor), 100 nM annealed; ATP concentration: 500 uM
Method in brief: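 Per cluster, summed Cy3 intensity from the target cycles was divided by that from the buffer cycles to give the fluorescence ratio, then averaged per switch-domain sequence. Clusters outside 100-1000 RFU were excluded. The Cy3-labelled switching-strand clusters, on a modified Illumina MiSeq flow-cell, were annealed to 100 nM quencher-labelled ATP aptamer and imaged in selection buffer, then after 15 min with 500 uM ATP at 22 °C, for five cycles with NaOH stripping and re-annealing between them.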
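Further: ATP exposure 15 min at 22 °C before imaging.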

| Sequence | switch fluorescence ratio |
| --- | --- |
| CATGGGAATT | 0.982 ± 0.032 |
| CATGGGGGGA | 0.994 ± 0.018 |
| CATGGGGTTA | 1.04 ± 0.048 |
| CATGGGGTTG | 0.978 ± 0.02 |
| CATGGGTTGC | 0.99 ± 0.029 |
| CATGGTAAAT | 0.984 ± 0.018 |
| CATGGTACGC | 1.055 ± 0.0043 |
| CATGGTAGGA | 0.975 ± 0.026 |
| CATGGTGTTA | 1.01 ± 0.025 |
| CATGGTTGG | 1.01 ± 0.051 |
| CATGTACTTT | 1.08 ± 0.031 |
| CATGTATGGA | 1.01 ± 0.041 |
| CATGTCAAGC | 1.05 ± 0.024 |
| CATGTGCTTC | 1.03 ± 0.0077 |
| CATGTGGTCA | 1.03 ± 0.046 |
| CATGTTGCTG | 1.09 ± 0.029 |
| CATTAAGGGT | 0.992 ± 0.029 |
| CATTAATTTG | 1.01 ± 0.012 |
| CATTAATTTT | 0.968 ± 0.044 |
| CATTACAGTG | 1.01 ± 0.014 |
| CATTACGTGC | 0.996 ± 0.016 |
| CATTACTGTA | 1.24 ± 0.076 |
| CATTAGATCG | 0.997 ± 0.044 |
| CATTATGGGT | 0.95 ± 0.013 |
| CATTATTGGG | 0.9851 ± 0.0017 |

| Sequence | switch fluorescence ratio |
| --- | --- |
| CATTCAGGGG | 1.2 ± 0.061 |
| CATTCATGGA | 1.03 ± 0.035 |
| CATTCGCCTC | 2.218 ± 0.015 |
| CATTCGGGGC | 1.11 ± 0.038 |
| CATTCGGGGT | 0.994 ± 0.029 |
| CATTCGTTTC | 1.15 ± 0.05 |
| CATTCTGACG | 1.18 ± 0.033 |
| CATTCTGCGG | 1.049 ± 0.002 |
| CATTCTTTGG | 0.9836 ± 0.0041 |
| CATTGAAGAG | 0.998 ± 0.013 |
| CATTGAGTTC | 0.978 ± 0.014 |
| CATTGCGGGA | 1.02 ± 0.024 |
| CATTGGAAGA | 1.02 ± 0.015 |
| CATTGGGACA | 1.02 ± 0.019 |
| CATTGGGTGC | 1.0458 ± 0.00093 |
| CATTGTAATT | 0.981 ± 0.011 |
| CATTGTATGT | 0.9421 ± 0.0087 |
| CATTGTTAAT | 1.01 ± 0.04 |
| CATTGTTGAG | 1.01 ± 0.049 |
| CATTGTTGAT | 0.989 ± 0.017 |
| CATTGTTTTG | 0.9676 ± 0.0041 |
| CATTTAAAAA | 0.919 ± 0.032 |
| CATTTAAGAT | 0.997 ± 0.024 |
| CATTTACCGG | 0.996 ± 0.056 |
| CATTTACTAT | 1.05 ± 0.021 |

| Sequence | switch fluorescence ratio |
| --- | --- |
| CATTTAGGTT | 0.982 ± 0.019 |
| CATTTATGCC | 1.17 ± 0.31 |
| CATTTCCTGA | 1.02 ± 0.038 |
| CATTTCCTGG | 1.01 ± 0.044 |
| CATTTGAGTG | 1 ± 0.042 |
| CATTTGATTG | 0.988 ± 0.013 |
| CATTTGCCTT | 1.03 ± 0.035 |
| CATTTGGAAT | 1.7 ± 0.97 |
| CATTTGGGAC | 1.02 ± 0.047 |
| CATTTGGGCG | 1.03 ± 0.015 |
| CATTTTCCGG | 1.11 ± 0.16 |
| CATTTTCGGC | 1.01 ± 0.039 |
| CATTTTGTTG | 1.01 ± 0.024 |
| CATTTTTAAG | 1 ± 0.011 |
| CATTTTTCTG | 0.963 ± 0.06 |
| CCAAAAAAAG | 1.03 ± 0.032 |
| CCAAACGAGT | 0.9661 ± 0.0041 |
| CCAAAGTATA | 1.166 ± 0.0013 |
| CCAAATTGTG | 1.03 ± 0.03 |
| CCAACAGCCC | 1.12 ± 0.079 |
| CCAACATGAT | 1.017 ± 0.007 |
| CCAACCATTG | 1.03 ± 0.011 |
| CCAACTTTAC | 1.57 ± 0.037 |
| CCAAGGAGAC | 1.35 ± 0.052 |
| CCAAGGCTGG | 1.02 ± 0.043 |

| Sequence | switch fluorescence ratio |
| --- | --- |
| CCAAGGGAGG | 1.01 ± 0.03 |
| CCAAGGGGGG | 1.11 ± 0.22 |
| CCAAGGGTGC | 1.63 ± 0.11 |
| CCAAGTAAGG | 1.08 ± 0.031 |
| CCAATAACGC | 1.22 ± 0.074 |
| CCAATCACGG | 1.09 ± 0.012 |
| CCAATCTGAC | 1.3 ± 0.14 |
| CCAATGCAGC | 3.22 ± 0.27 |
| CCAATGGATA | 1.03 ± 0.02 |
| CCAATTGAAG | 1.02 ± 0.016 |
| CCAATTGCAT | 1.12 ± 0.021 |
| CCAATTGGTG | 1.03 ± 0.016 |
| CCAATTTATG | 0.9919 ± 0.0078 |
| CCAATTTGAA | 0.9913 ± 0.0081 |
| CCAATTTGTG | 1 ± 0.028 |
| CCAATTTTAC | 1.39 ± 0.055 |
| CCACAATTTT | 1.43 ± 0.63 |
| CCACCAATTT | 1.8 ± 1.2 |
| CCACGGGGGG | 1.27 ± 0.1 |
| CCACTGGGCG | 1.07 ± 0.014 |
| CCACTGGGGG | 1.04 ± 0.028 |
| CCAGACGGGC | 1.07 ± 0.059 |
| CCAGACGGTC | 1.04 ± 0.085 |
| CCAGAGGTTG | 0.999 ± 0.021 |
| CCAGATAACG | 1.04 ± 0.022 |
